Read-outs that look alike come from different tables or passages of the source.

Experiment [1] has as its target T1, human TIGIT protein expressed on cells (CHOK1-TIGIT) (human, UniProt Q495A1 22-244).
T1 construct: whole, on cells; also called CHOK1-TIGIT cells
T1 sequence (looked up): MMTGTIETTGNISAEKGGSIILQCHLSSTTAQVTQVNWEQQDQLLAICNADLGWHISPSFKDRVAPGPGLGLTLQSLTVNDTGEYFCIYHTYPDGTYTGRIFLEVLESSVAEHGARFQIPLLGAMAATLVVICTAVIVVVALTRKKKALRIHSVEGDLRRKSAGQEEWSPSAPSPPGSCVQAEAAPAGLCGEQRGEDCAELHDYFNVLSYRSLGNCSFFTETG
In words: flow cytometry on CHOK1-TIGIT cells.

Experiment [2] addresses T2, human TIGIT (Acro Biosystems Cat#TIT-H52H5) (human, UniProt Q495A1 22-141).
T2 construct: Soluble bought protein; also called TIGIT protein; human TIGIT antigen
T2 sequence (looked up): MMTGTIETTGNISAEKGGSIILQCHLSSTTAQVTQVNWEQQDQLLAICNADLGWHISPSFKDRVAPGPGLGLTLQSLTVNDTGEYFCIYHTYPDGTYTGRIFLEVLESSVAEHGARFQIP
In words: SPR (Biacore 8K), antibody captured on Protein A chip, antigen as analyte, 1:1 binding. In general terms: SPR reads the build-up and loss of mass on a sensor chip optically.

The target in experiment [3] is T2, human TIGIT (Acro Biosystems …). The experiment is described as follows: SPR (Biacore 8K), antigen captured by anti-His antibody on CM5 chip, antibody as analyte, 1:1 binding.
Experiment [4] deals with T1, human TIGIT protein expressed on cells …. In words: flow cytometry, blocking of CHOK1-TIGIT cells binding to CHOK1-CD155 cells (competitor: CD155 on cells).
Experiment [5] concerns the target T3, human CTLA4 protein expressed on cells (CHOK1-CTLA4, HEK293-CTLA4) (human, UniProt P16410 36-223).
T3 construct: whole, on cells; also called CHOK1-CTLA4 cells; HEK293-CTLA4 single-positive cells
T3 sequence (looked up): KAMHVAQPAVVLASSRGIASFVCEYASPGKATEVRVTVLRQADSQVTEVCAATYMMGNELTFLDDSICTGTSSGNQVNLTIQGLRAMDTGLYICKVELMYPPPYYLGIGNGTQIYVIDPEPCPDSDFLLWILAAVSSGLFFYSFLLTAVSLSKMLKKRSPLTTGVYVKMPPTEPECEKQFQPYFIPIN
In words: flow cytometry on CHOK1-CTLA4 cells. (In general: In flow cytometry, cells or beads pass a laser one at a time.)

The target of experiment [6] is T3, human CTLA4 protein expressed on cells …. The experiment is described as follows: flow cytometry, blocking of CHOK1-CTLA4 cells binding to CHOK1-CD80 cells (competitor: CD80 on cells).
For experiment [7] the target is unchanged. In words: flow cytometry on CHOK1-CTLA4 cells. This is another data set of the same source.

B1: anti-CTLA4/TIGIT antibody As-3 (bispecific antibody, human IgG1, kappa)
heavy 1: QVQLVESGGGVVQPGRSLRLSCAASGFTFSSYTMHWVRQAPGKGLEWVTFISYDGNNKYYADSVKGRFTISRDNSKNTLYLQMNSLRAEDTAIYYCARTGWLGPFDYWGQGTLVTVSSGGGGSSGAPRFLTRPKASVVSVGKDATLSCQIVGNPFPQVSWEKDKQPVTAGVRFRLAQDGDLYRLKILDLQLSDSGQYVCRARNAHGEAFACLGLQVDAEADKTHTCPPCPAPELLGGPDVFLFPPKPKDTLMISRTPEVTCVVVDVSHEDPEVKFNWYVDGVEVHNAKTKPREEQYNSTYRVVSVLTVLHQDWLNGKEYKCKVSNKALPLPEEKTISKAKGQPREPQVYTLPPCREEMTKNQVSLWCLVKGFYPSDIAVEWESNGQPENNYKTTPPVLDSDGSFFLYSKLTVDKSRWQQGNVFSCSVMHEALHNHYTQKSLSLSPGK
light 1: not shown
heavy 2: EVQLVQSGAEVKKPGASVKVSCKASGYTFTNYWMHWVRQAPGQGLEWMGRIDPDSTGSKYNEKFKTRVTMTRDTSTSTVYMELSSLRSEDTAVYYCAREGAYGYYFDYWGQGTLVTVSSASTKGPSVFPLAPSSKSTSGGTAALGCLVKDYFPEPVTVSWNSGALTSGVHTFPAVLQSSGLYSLSSVVTVPSSSLGTQTYICNVNHKPSNTKVDKKVEPKSCDKTHTCPPCPAPELLGGPDVFLFPPKPKDTLMISRTPEVTCVVVDVSHEDPEVKFNWYVDGVEVHNAKTKPREEQYNSTYRVVSVLTVLHQDWLNGKEYKCKVSNKALPLPEEKTISKAKGQPREPQVCTLPPSREEMTKNQVSLSCAVKGFYPSDIAVEWESNGQPENNYKTTPPVLDSDGSFFLVSKLTVDKSRWQQGNVFSCSVMHEALHNHYTQKSLSLSPGK
light 2: DIQMTQSPSSLSASVGDRVTITCRASENIYSYLAWYQQKPGKSPKLLIYNARTLAEGVPSRFSGSGSGTDFTLTISSLQPEDFATYYCQYHSGSPLPFGGGTKVEIKRTVAAPSVFIFPPSDEQLKSGTASVVCLLNNFYPREAKVQWKVDNALQSGNSQESVTEQDSKDSTYSLSSTLTLSKADYEKHKVYACEVTHQGLSSPVTKSFNRGEC
Take B1: in experiment [1], a half-maximal response (EC50) required 720 pM. In addition, in experiment [2], the affinity, expressed as Kd, was 41.1 pM; the koff (usually the first-order rate constant of dissociation) worked out at 7.13e-05 s⁻¹; the kon – broadly, a measure of how fast the partners come together – stood at 1.73e+06 M⁻¹ s⁻¹. In experiment [3], binding was put at a Kd of 535 pM, the koff turned out to be 0.00052 s⁻¹ and the on-rate (kon) was found to be 972000 M⁻¹ s⁻¹. Besides, the IC50 (as a rule, the concentration that inhibits the measured activity by half) in experiment [4] amounted to 1440 pM.

B2: anti-CTLA4/TIGIT antibody S-15 (bispecific antibody)
heavy: EVQLVQSGAEVKKPGASVKVSCKASGYTFTNYWMHWVRQAPGQGLEWMGRIDPDSTGSKYNEKFKTRVTMTRDTSTSTVYMELSSLRSEDTAVYYCAREGAYGYYFDYWGQGTLVTVSSASTKGPSVFPLAPSSKSTSGGTAALGCLVKDYFPEPVTVSWNSGALTSGVHTFPAVLQSSGLYSLSSVVTVPSSSLGTQTYICNVNHKPSNTKVDKKVEPKSCDGGGGSGGGGSGGGGSQVQLVESGGGVVQPGRSLRLSCAASGFTFSSYGMHWVRQAPGKGLEWVAVIWYDGSNKYYADSVKGRFTISRDNSKNTLYLQMNSLRAEDTAVYYCARDPRGATLYYYYYGMDVWGQGTTVTVSSGGGGSSGAPRFLTRPKASVVSVGKDATLSCQIVGNPFPQVSWEKDKQPVTAGVRFRLAQDGDLYRLKILDLQLSDSGQYVCRARNAHGEAFACLGLQVDAEADKTHTCPPCPAPELLGGPDVFLFPPKPKDTLMISRTPEVTCVVVDVSHEDPEVKFNWYVDGVEVHNAKTKPREEQYNSTYRVVSVLTVLHQDWLNGKEYKCKVSNKALPLPEEKTISKAKGQPREPQVYTLPPSREEMTKNQVSLTCLVKGFYPSDIAVEWESNGQPENNYKTTPPVLDSDGSFFLYSKLTVDKSRWQQGNVFSCSVMHEALHNHYTQKSLSLSPGK
light 1: B1 light 2
light 2: DIQMTQSPSSLSASVGDRVTITCRASQSINSYLDWYQQKPGKAPKLLIYAASSLQSGVPSRFSGSGSGTDFTLTISSLQPEDFATYYCQQYYSTPFTFGPGTKVEIKGGGGSGIPPKIECLPIDISIDEGKVLTVASAFTGEPTPEVTWSTGGRKIHSQEQGRFHIENTDDSTTLTIKDVQKQDGGLYTLTLRNEFGSDSATVNIHIRSI
notes: Symmetric bispecific antibody with one kind of heavy chain and two kinds of light chain
Consider B2, for which the half-maximal effective concentration (EC50) (as a rule, the concentration giving half of the maximal effect) was 3350 pM in experiment [5] and 430 pM in experiment [1]. The IC50 was 1420 pM in experiment [6] and 420 pM in experiment [4].

B3: Anti-CTLA4 antibody Tre (antibody, V domains shown)
VH: QVQLVESGGGVVQPGRSLRLSCAASGFTFSSYGMHWVRQAPGKGLEWVAVIWYDGSNKYYADSVKGRFTISRDNSKNTLYLQMNSLRAEDTAVYYCARDPRGATLYYYYYGMDVWGQGTTVTVSS
VL: DIQMTQSPSSLSASVGDRVTITCRASQSINSYLDWYQQKPGKAPKLLIYAASSLQSGVPSRFSGSGSGTDFTLTISSLQPEDFATYYCQQYYSTPFTFGPGTKVEIK
B3: the EC50 in experiment [7] was determined as 1270 pM; in experiment [5] it was 530 pM. For the same molecule, in experiment [6], the IC50 was 490 pM.

B4: Anti-TIGIT antibody RG6058 (antibody, V domains shown)
VH: EVQLQQSGPGLVKPSQTLSLTCAISGDSVSSNSAAWNWIRQSPSRGLEWLGKTYYRFKWYSDYAVSVKGRITINPDTSKNQFSLQLNSVTPEDTAVFYCTRESTTYDLLAGPFDYWGQGTLVTVSS
VL: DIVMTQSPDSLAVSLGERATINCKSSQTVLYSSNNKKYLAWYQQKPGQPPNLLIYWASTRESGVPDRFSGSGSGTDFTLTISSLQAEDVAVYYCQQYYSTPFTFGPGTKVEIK
For the molecule B4, in experiment [1], a half-maximal effect (EC50) was put at 480 pM. The same molecule returned an IC50 in experiment [4] of 670 pM.

(Values after patent EP4772539A1 (Jiangsu Hengrui Pharmaceuticals Co., Ltd., dated 2026).)
